Reference: US20160361434

Tests used:
CF13Q4 = biological target: T1, CF13Q4
T1 chain: CYEQHKLPSSWPF

CS9Q4 = biological target: T2, CS9Q4
T2 chain: CYEQHKLPS

CW8Q3 = biological target: T3, CW8Q3
T3 chain: CDQMMLPW

DH6N5 = biological target: T4, DH6N5
T4 chain: DVYSNH

DH6Q5 = biological target: T5, DH6Q5
T5 chain: DVYSQH

FE5Q4 = biological target: T6, FE5Q4
T6 chain: FWIQE

FY12Q10 = biological target: T7, FY12Q10
T7 chain: FPWSSPLKHQEY

GS12Q7 = biological target: T8, GS12Q7
T8 chain: GGSPLAQSHGGS

HG14Q11 = biological target: T9, HG14Q11
T9 chain: HDLMWPDVYSQHGG

HH12N11 = biological target: T10, HH12N11
T10 chain: HDLMWPDVYSNH

HH12Q11 = biological target: T11, HH12Q11
T11 chain: HDLMWPDVYSQH

SY10Q8 = biological target: T12, SY10Q8
T12 chain: SPLKHQEY

TGpan = biological target: T13, TGpan
T13 chain: QG

WG10Q7 = biological target: T14, WG10Q7
T14 chain: WPDVYSQHGG

YV10 = biological target: T15, YV10
T15 chain: YLADTNSLAV

[1] = biological target: BSA-HH12Q11 conjugate, P02769
[2] = biological target: Bovine serum albumin, P02769
Bovine serum albumin, P02769, sequence (P02769 25-607): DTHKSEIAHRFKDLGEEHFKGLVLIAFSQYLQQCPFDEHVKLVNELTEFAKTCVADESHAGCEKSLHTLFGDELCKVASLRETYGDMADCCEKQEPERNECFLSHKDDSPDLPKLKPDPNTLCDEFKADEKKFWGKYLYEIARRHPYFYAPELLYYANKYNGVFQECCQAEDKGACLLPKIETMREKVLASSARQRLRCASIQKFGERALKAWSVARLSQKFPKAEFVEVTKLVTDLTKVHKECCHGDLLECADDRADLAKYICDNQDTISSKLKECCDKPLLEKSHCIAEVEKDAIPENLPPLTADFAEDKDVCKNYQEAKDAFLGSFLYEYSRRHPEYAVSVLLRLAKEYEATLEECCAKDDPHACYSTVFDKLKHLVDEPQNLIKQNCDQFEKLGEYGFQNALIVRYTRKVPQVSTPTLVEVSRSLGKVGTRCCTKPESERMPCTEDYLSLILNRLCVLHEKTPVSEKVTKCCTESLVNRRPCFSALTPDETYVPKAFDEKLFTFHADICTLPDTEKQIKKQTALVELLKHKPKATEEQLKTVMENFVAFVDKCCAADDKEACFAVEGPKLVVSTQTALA

BSA-HH12Q11 conjugate, P02769, sequence (P02769 25-607): as above

B1: Recombinant human transglutaminase 2 (hTG2) (protein)
chain: MAEELVLERCDLELETNGRDHHTADLCREKLVVRRGQPFWLTLHFEGRNYEASVDSLTFSVVTGPAPSQEAGTKARFPLRDAVEEGDWTATVVDQQDCTLSLQLTTPANAPIGLYRLSLEASTGYQGSSFVLGHFILLFNAWCPADAVYLDSEEERQEYVLTQQGFIYQGSAKFIKNIPWNFGQFEDGILDICLILLDVNPKFLKNAGRDCSRRSSPVYVGRVVSGMVNCNDDQGVLLGRWDNNYGDGVSPMSWIGSVDILRRWKNHGCQRVKYGQCWVFAAVACTVLRCLGIPTRVVTNYNSAHDQNSNLLIEYFRNEFGEIQGDKSEMIWNFHCWVESWMTRPDLQPGYEGWQALDPTPQEKSEGTYCCGPVPVRAIKEGDLSTKYDAPFVFAEVNADVVDWIQQDDGSVHKSINRSLIVGLKISTKSVGRDEREDITHTYKYPEGSSEEREAFTRANHLNKLAEKEETGMAMRIRVGQSMNMGSDFDVFAHITNNTAEEYVCRLLLCARTVSYNGILGPECGTKYLLNLNLEPFSEKSVPLCILYEKYRDCLTESNLIKVRALLVEPVINSYLLAERDLYLENPEIKIRILGEPKQKRKLVAEVSLQNPLPVALEGCTFTVEGAGLTEEQKTVEIPDPVEAGEEVKVRMDLLPLHMGLHKLVVNFESDKLKAVKGFRNVIIGPA
Q: What does the source list for B1?
A: TG2-mediated incorporation of biotin-cadaverine into plate-coupled peptide (A450) (CF13Q4): none of the other peptides react with the enzyme and cannot be used as substrate for TG2; TG2-mediated incorporation of biotin-cadaverine into plate-coupled peptide (A450) (CS9Q4): none of the other peptides react with the enzyme and cannot be used as substrate for TG2; TG2-mediated incorporation of biotin-cadaverine into plate-coupled peptide (A450) (CW8Q3): none of the other peptides react with the enzyme and cannot be used as substrate for TG2; TG2-mediated incorporation of biotin-cadaverine into plate-coupled peptide (A450) (DH6N5): none of the other peptides react with the enzyme and cannot be used as substrate for TG2; TG2-mediated incorporation of biotin-cadaverine into plate-coupled peptide (A450) (DH6Q5): none of the other peptides react with the enzyme and cannot be used as substrate for TG2; TG2-mediated incorporation of biotin-cadaverine into plate-coupled peptide (A450) (FE5Q4): none of the other peptides react with the enzyme and cannot be used as substrate for TG2; TG2-mediated incorporation of biotin-cadaverine into plate-coupled peptide (A450) (FY12Q10): none of the other peptides react with the enzyme and cannot be used as substrate for TG2; TG2-mediated incorporation of biotin-cadaverine into plate-coupled peptide (A450) (GS12Q7): none of the other peptides react with the enzyme and cannot be used as substrate for TG2; TG2-mediated incorporation of biotin-cadaverine into plate-coupled peptide (A450) (HG14Q11): none of the other peptides react with the enzyme and cannot be used as substrate for TG2; TG2-mediated incorporation of biotin-cadaverine into plate-coupled peptide (A450) (HH12N11): none of the other peptides react with the enzyme and cannot be used as substrate for TG2; TG2-mediated incorporation of biotin-cadaverine into plate-coupled peptide (A450) (HH12Q11): HH12Q11 show less reactivity with TG2 than mTG; TG2-mediated incorporation of biotin-cadaverine into plate-coupled peptide (A450) (SY10Q8): none of the other peptides react with the enzyme and cannot be used as substrate for TG2; TG2-mediated incorporation of biotin-cadaverine into plate-coupled peptide (A450) (TGpan): TGpan is good substrate for TG2 confirming its specificity to this enzyme; TG2-mediated incorporation of biotin-cadaverine into plate-coupled peptide (A450) (WG10Q7): none of the other peptides react with the enzyme and cannot be used as substrate for TG2; TG2-mediated incorporation of biotin-cadaverine into plate-coupled peptide (A450) (YV10): none of the other peptides react with the enzyme and cannot be used as substrate for TG2

B2: Recombinant microbial transglutaminase (mTG) (protein)
chain: DSDDRVTPPAEPLDRMPDPYRPSYGRAETVVNNYIRKWQQVYSHRDGRKQQMTEEQREWLSYGCVGVTWVNSGQYPTNRLAFASFDEDRFKNELKNGRPRSGETRAEFEGRVAKESFDEEKGFQRAREVASVMNRALENAHDESAYLDNLKKELANGNDALRNEDARSPFYSALRNTPSFKERNGGNHDPSRMKAVIYSKHFWSGQDRSSSADKRKYGDPDAFRPAPGTGLVDMSRDRNIPRSPTSPGEGFVNFDYGWFGAQTEADADKTVWTHGNHYHAPNGSLGAMHVYESKFRNWSEGYSDFDRGAYVITFIPKSWNTAPDKVKQGWP
Q: How did the “mTG incorporation of biot-cad into coated conjugate (A450)” value [1] turn out when B2 was run?
A: a good incorporation of biot-cad was obtained with BSA-HH12Q11 conjugate

Q: What about the “mTG incorporation of biot-cad into coated protein (A450)” value [2] of the same protein?
A: no reactivity with free BSA

Q: And the “mTG-mediated incorporation of biotin-X-cadaverine into plate-coupled peptide (A450)” value (“mTG-mediated incorporation” for short) (CF13Q4)?
A: The other peptides listed in table 1 didn't show any reactivity with mTG

Q: What about the “mTG-mediated incorporation” value (CS9Q4) of the same protein?
A: The other peptides listed in table 1 didn't show any reactivity with mTG

Q: What about the “mTG-mediated incorporation” value (CW8Q3) of the same protein?
A: The other peptides listed in table 1 didn't show any reactivity with mTG

Q: And the “mTG-mediated incorporation” value (DH6N5)?
A: The other peptides listed in table 1 didn't show any reactivity with mTG

Q: And the “mTG-mediated incorporation” value (DH6Q5)?
A: Peptides FE5Q4, HH12Q11 and DH6Q7 were found to be good substrate for mTG

Q: And the “mTG-mediated incorporation” value (FE5Q4)?
A: found to be good substrate for mTG with better reactivity of the peptides FE5Q4 and HH12Q11

Q: And the “mTG-mediated incorporation” value (FY12Q10)?
A: The other peptides listed in table 1 didn't show any reactivity with mTG

Q: What about the “mTG-mediated incorporation” value (GS12Q7) of the same protein?
A: showed low reactivity to mTG in comparison with the other peptides

Q: And the “mTG-mediated incorporation” value (HH12N11)?
A: no reactivity of the mTG was observed

Q: What about the “mTG-mediated incorporation” value (HH12Q11) of the same protein?
A: found to be good substrate for mTG with better reactivity of the peptides FE5Q4 and HH12Q11

Q: And the “mTG-mediated incorporation” value (SY10Q8)?
A: The other peptides listed in table 1 didn't show any reactivity with mTG

Q: And the “mTG-mediated incorporation” value (TGpan)?
A: showed low reactivity to mTG in comparison with the other peptides
